# Legend:
# apoA-I rHDL [1] = assay: Surface plasmon resonance binding of Δ20-rePON1 192 isozymes to immobilized rHDL-apoA-I; settings: for Kd / koff / kon: SPR, 25° C., biotinylated rHDL-apoA-I on streptavidin chip
# Description: FIGS. 2A-C are sensorgrams for the binding of wt Δ20-rePON1-192K—SEQ ID NO:8 (FIG. 2A), Δ20-rePON1-192R—SEQ ID NO:10 (FIG. 2B) and Δ20-rePON1-192Q—SEQ ID NO:12 (FIG. 2C) isozymes to rHDL-apoA-I. Biotinylated rHDL-apoA-I particles were immobilized onto the streptavidin surface (SA chip), and a series of PON1 concentrations were injected over the immobilized and blank surfaces to obtain the net binding response. Binding was performed at 25° C. Association and dissociation phases were fitted to a single exponential, from which kinetic rate constants were derived. PON1 concentrations in all the sensorgrams are (from bottom to top) 25, 40, 60, 80, 100, 150 and 200 nM;
# Surface plasmon resonance (SPR) measurements: rHDL-apoA-I particles containing 0.7% of N-biotinyl-dipalmitoylphosphatidylethanolamine (N-biotynyl-DPPE; Avanti Polar Lipids) were prepared and purified as described [Gaidukov, L. and D. S. Tawfik, Biochemistry, 2005. 44(35): p. 11843-54]. SPR was performed on BIAcore 3000 (Uppsala, Sweden) as described [Gaidukov, L. and D. S. Tawfik, Biochemistry, 2005. 44(35): p. 11843-54]. Briefly, the biotinylated rHDL particles were adsorbed on streptavidin (SA5) chip, and Δ20-rePON1 isozymes were injected over the immobilized and blank surfaces to obtain the net binding response. Binding rate constants were obtained by fitting of association and dissociation phases to single exponentials as described [Gaidukov, L. and D. S. Tawfik, Biochemistry, 2005. 44(35): p. 11843-54].
# The above results were further supported by affinity measurements using surface plasmon resonance. It was previously shown that HDL affinity of the intact rePON1 is very high (sub-nanomolar) and could not be determined accurately using surface plasmon resonance [Gaidukov, L., and Tawfik, D. S. (2005)Biochemistry 44, 11843-11854]. In contrast, binding affinity of the truncated variant lacking the first 20 amino acids of the hydrophobic N-terminus (Δ20-rePON1) could be amply determined. Therefore, the truncated variants of PON1 192 isozymes were prepared and their HDL binding affinities measured. Typical binding sensorgrams between Δ20-rePON1 isozymes and the immobilized HDL particles are portrayed in FIGS. 2A-C, and the derived rate and affinity constants are summarized in Table 2 herein below.
# apoA-I rHDL [2] = assay: Inactivation kinetics of rePON1 192 isozymes bound to rHDL-apoA-I (EDTA/β-mercaptoethanol, residual phenyl acetate hydrolysis); assay type: biochemical; settings: for A2 (amplitude) (%): as printed in Table 2 beside the SPR constants of the Δ20 variants
# Description: (§1) FIG. 1 is a graph showing the inactivation kinetics of the wild-type rePON1-192K (SEQ ID NO:2), -192R (SEQ ID NO:4) and -192Q (SEQ ID NO:6) isozymes, bound to rHDL-apoA-I, or in buffer. Delipidated enzymes were incubated with a 50-fold excess of rHDL-apoA-I, or in activity buffer, and subjected to inactivation in the presence of EDTA (5 mM) and β-mercaptoethanol (10 mM) at 37° C. Residual activity at various time points was determined by initial rates of phenyl acetate hydrolysis (2 mM) and plotted as percent of the activity at time zero. Data were fitted to a single exponential for wild-type rePON1-192K on rHDL-apoA-I, and to double-exponentials for the remaining samples. The inactivation rate constants and amplitudes were derived from this fit;
# (§2) Inactivation rates of rePON1s were measured as described [Gaidukov, L. and D. S. Tawfik, Biochemistry, 2005. 44(35): p. 11843-54]. Briefly, rePON1 samples were delipidated using Bio-Beads SM-2 (BioRad) and incubated in buffer, or with 50-fold molar excess of rHDL-apoA-I. EDTA (10 mM) and β-mercaptoethanol (20 mM) were added, and samples were incubated at 37° C. Residual activity at different time points was determined with 2 mM phenyl acetate, and inactivation rates were fitted to either mono- or double-exponentials [Gaidukov, L. and D. S. Tawfik, Biochemistry, 2005. 44(35): p. 11843-54].
# (§3) The resultant inactivation profiles of wt rePON1 (SEQ ID NO: 2), rePON1-192Q (SEQ ID NO: 6) and rePON1-192R (SEQ ID NO: 4), were fitted to exponential curves as illustrated in FIG. 1.
# apoA-I rHDL [3] = assay: Stimulation of enzymatic activity of rePON1 192 isozymes by rHDL-apoA-I; assay type: biochemical; settings: for Vmax (%) activation factor: relative to delipidated enzyme (100%)
# Source text: The activity is presented in relation to the initial activity of the delipidated enzymes (percentage of stimulation). Data were fitted to the Langmuir saturation curve, from which the activation factor (Vmax) and the apparent affinity (Kapp) were derived;
# Stimulated activity is presented as the percentage of the initial activity of the delipidated enzymes (corresponds to 100%). Data were fitted to the Langmuir saturation curve, from which the activation factor (Vmax) and the apparent affinity (Kapp) were derived;
# Delipidated rePONs at 0.2 μM were incubated with a range of rHDL concentrations (0.1-10 μM) for 3 hrs at 37° C. Enzymatic activity was determined in activity buffer (50 mM Tris pH 8.0, 1 mM CaCl2) with substrates at 1 mM concentrations as described [Gaidukov, L. and D. S. Tawfik, Biochemistry, 2005. 44(35): p. 11843-54]. 5-(thiobutyl)-butyrolactone (TBBL) was applied at 0.25 mM, and product formation was monitored spectrophotometrically at 412 nm using 5,5′-dithio-bis-2-nitrobenzoic acid (DTNB) as described [Khersonsky, O. and D. S. Tawfik, Chembiochem, 2006. 7(1): p. 49-53].
# Stimulation of the enzymatic activity was examined by incubating rePON1 isozymes with a range of rHDL concentrations (at the HDL/PON ratio of 0.5-50), and measuring the catalytic activity with various substrates as detailed hereinabove. FIGS. 3A-B illustrate the enzymatic activity of the rePON1 isozymes with δ-nonanoic lactone as substrate (FIG. 3A) and thiobutyl butiryl lactone (TBBL) as substrate (FIG. 3B). FIGS. 4A-D illustrate the enzymatic activity of the rePON1 isozymes with γ-dodecanoic lactone as substrate (FIG. 4A), δ-valerolactone as substrate (FIG. 4B), phenyl acetate as substrate (FIG. 4C) and paraoxon as substrate (FIG. 4D). Data were fitted to the Langmuir saturation curve to give the activation factor Vmax (in percent relative to the delipidated PON1) and the apparent affinity Kapp.
# [4] = Inactivation kinetics of rePON1 192 isozymes in activity buffer; assay type: biochemical; settings: EDTA and β-mercaptoethanol, 37° C.
# Description: as §1, §2, §3
# [5] = substrate γ-dodecanoic lactone 1 mM
# [6] = substrate δ-nonanoic lactone 1 mM
# [7] = apoA-I rHDL, 50-fold molar excess, EDTA and β-mercaptoethanol, 37° C.
molecule,measurement,setting,value
"wt Δ20-rePON1-192K: truncated rePON1 variant lacking the first 20 amino acids of the hydrophobic N-terminus, 192K (protein, Delta20-rePON1-192K isozyme, truncated rePON1 variant lacking the first 20 amino acids of the hydrophobic N-terminus, 192K) MAKSSFQTRFNVHREVTPVELPNCNLVKGVDNGSEDLEILPNGLAFISSGLKYPGIMSFDPDKSGKILLMDLNEEDPVVLELGITGNTLDISSFNPHGISTFTDEDNTVYLLVVNHPDSSSTVEVFKFQEEEKSLLHLKTIRHKLLPSVNDIVAVGPEHFYATNDHYFADPYLKSWEMHLGLAWSFVTYYSPNDVRVVAEGFDFANGINISPDGKYVYIAELLAHKIHVYEKHANWTLTPLKSLDFDTLVDNISVDPVTGDLWVGCHPNGMRIFYYDPKNPPGSEVLRIQDILSEEPKVTVVYAENGTVLQGSTVAAVYKGKLLIGTVFHKALYCEL",Kd,apoA-I rHDL [1],100 nM
same,koff,apoA-I rHDL [1],(2.0 ± 0.2) × 10^−2 s^−1
same,kon,apoA-I rHDL [1],(2.0 ± 0.3) × 10^5 s^−1 M^−1
same,fold higher HDL binding affinity than the Q isozyme,apoA-I rHDL [1]; relative to the Q isozyme,3 fold
same,A2 (amplitude) (%),apoA-I rHDL [2],100%
"Δ20-rePON1-192R: truncated rePON1 variant lacking the first 20 N-terminal amino acids, 192R isozyme (protein, Delta20-rePON1-192R isozyme, truncated rePON1 variant lacking the first 20 N-terminal amino acids, 192R isozyme) MAKSSFQTRFNVHREVTPVELPNCNLVKGVDNGSEDLEILPNGLAFISSGLKYPGIMSFDPDKSGKILLMDLNEEDPVVLELGITGNTLDISSFNPHGISTFTDEDNTVYLLVVNHPDSSSTVEVFKFQEEEKSLLHLKTIRHKLLPSVNDIVAVGPEHFYATNDHYFADPYLRSWEMHLGLAWSFVTYYSPNDVRVVAEGFDFANGINISPDGKYVYIAELLAHKIHVYEKHANWTLTPLKSLDFDTLVDNISVDPVTGDLWVGCHPNGMRIFYYDPKNPPGSEVLRIQDILSEEPKVTVVYAENGTVLQGSTVAAVYKGKLLIGTVFHKALYCEL",Kd,apoA-I rHDL [1],110 nM
same,koff,apoA-I rHDL [1],(2.9 ± 0.2) × 10^−2 s^−1
same,kon,apoA-I rHDL [1],(2.6 ± 0.3) × 10^5 s^−1 M^−1
same,A2 (amplitude) (%),apoA-I rHDL [2],90%
"Δ20-rePON1-192Q: truncated rePON1 variant lacking the first 20 N-terminal amino acids, 192Q isozyme (protein, Delta20-rePON1-192Q isozyme, truncated rePON1 variant lacking the first 20 N-terminal amino acids, 192Q isozyme) MAKSSFQTRFNVHREVTPVELPNCNLVKGVDNGSEDLEILPNGLAFISSGLKYPGIMSFDPDKSGKILLMDLNEEDPVVLELGITGNTLDISSFNPHGISTFTDEDNTVYLLVVNHPDSSSTVEVFKFQEEEKSLLHLKTIRHKLLPSVNDIVAVGPEHFYATNDHYFADPYLQSWEMHLGLAWSFVTYYSPNDVRVVAEGFDFANGINISPDGKYVYIAELLAHKIHVYEKHANWTLTPLKSLDFDTLVDNISVDPVTGDLWVGCHPNGMRIFYYDPKNPPGSEVLRIQDILSEEPKVTVVYAENGTVLQGSTVAAVYKGKLLIGTVFHKALYCEL",Kd,apoA-I rHDL [1],300 nM
same,koff,apoA-I rHDL [1],(4.2 ± 0.2) × 10^−2 s^−1
same,kon,apoA-I rHDL [1],(1.4 ± 0.5) × 10^5 s^−1 M^−1
same,A2 (amplitude) (%),apoA-I rHDL [2],70%
"rePON1-192Q: recombinant PON1 with glutamine at position 192, generated to mimic the human Q isozyme (protein, rePON1-192Q isozyme, recombinant PON1 with glutamine at position 192, generated to mimic the human Q isozyme) MAKLTALTLLGLGLALFDGQKSSFQTRFNVHREVTPVELPNCNLVKGVDNGSEDLEILPNGLAFISSGLKYPGIMSFDPDKSGKILLMDLNEEDPVVLELGITGNTLDISSFNPHGISTFTDEDNTVYLLVVNHPDSSSTVEVFKFQEEEKSLLHLKTIRHKLLPSVNDIVAVGPEHFYATNDHYFADPYLQSWEMHLGLAWSFVTYYSPNDVRVVAEGFDFANGINISPDGKYVYIAELLAHKIHVYEKHANWTLTPLKSLDFDTLVDNISVDPVTGDLWVGCHPNGMRIFYYDPKNPPGSEVLRIQDILSEEPKVTVVYAENGTVLQGSTVAAVYKGKLLIGTVFHKALYCEL",reduction of Vmax compared to wt rePON1-192K,apoA-I rHDL [3]; all the substrates tested,50-80%
same,Kapp (apparent affinity for HDL stimulation),apoA-I rHDL [3]; substrate TBBL 0.25 mM,0.5 ± 0.1 µM
same,Vmax (%) activation factor,apoA-I rHDL [3]; substrate TBBL 0.25 mM,340 ± 4%
same,Vmax (%) activation factor,apoA-I rHDL [3]; substrate paraoxon 1 mM,128 ± 1%
same,Kapp (apparent affinity for HDL stimulation),apoA-I rHDL [3]; substrate phenyl acetate 1 mM,0.8 ± 0.1 µM
same,Vmax (%) activation factor,apoA-I rHDL [3]; substrate phenyl acetate 1 mM,165 ± 1%
same,Kapp (apparent affinity for HDL stimulation),apoA-I rHDL [3]; [5],0.6 ± 0.2 µM
same,Vmax (%) activation factor,apoA-I rHDL [3]; [5],382 ± 20%
same,Kapp (apparent affinity for HDL stimulation),apoA-I rHDL [3]; [6],0.6 ± 0.1 µM
same,Vmax (%) activation factor,apoA-I rHDL [3]; [6],778 ± 12%
same,Kapp (apparent affinity for HDL stimulation),apoA-I rHDL [3]; substrate δ-valerolactone 1 mM,1.1 ± 0.1 µM
same,Vmax (%) activation factor,apoA-I rHDL [3]; substrate δ-valerolactone 1 mM,481 ± 7%
same,"k1^inactiv (first, fast phase)",[4],5.2 h⁻¹
same,"k2^inactiv (second, slow phase)",[4],0.3 h⁻¹
same,"A2 (%) (amplitude of second, slow inactivation phase = HDL-bound fraction)",apoA-I rHDL [2]; [7],70%
same,"k1^inactiv (first, fast phase)",apoA-I rHDL [2]; [7],1.1 h⁻¹
same,"k2^inactiv (second, slow phase)",apoA-I rHDL [2]; [7],0.01 h⁻¹

# — patent US20100028924A1, “Method Of Diagnosing Pon1-Hdl Associated Lipid Disorders” (Rappaport Family Institute Research in the Medical Sciences, priority 2006, published 2010)
